Experimental findings from paper PMC3203615 are described below.

In the test the target is isolated C-terminal domain (CTD, 213-288) of HIV-1 integrase (HIV-1). Briefly: SEC. Background: In gel filtration, larger molecules generally elute earlier.

As for “isolated C-terminal domain (CTD, 213-288) of HIV-1 integrase (domain or fragment)”, the stoichiometry N was found to be 2.

The term stoichiometry N denotes a count of units in the complex or per binding partner.
